US20240262917A1, “ANTIBODIES AGAINST ALK AND METHODS OF USE THEREOF” (Dana-Farber Cancer Institute, Inc., priority 2021, published 2024)
“Also recorded” adds a separate entry of the source.

How the values were obtained:
ALK = experiment: Western blot analysis of ALK in cell lysates and conditioned media; type: binding, human
Description: (A) Western blot analysis of ALK in Kelly and SHEP neuroblastoma cells overexpressing GFP and mutated ALK using the mAb-7 and 8G7 anti-ALK antibodies. The mAb-7 antibody was developed at the Vigny laboratory (INSERM, Unité 706/Université Pierre et Marie Curie, Paris F-75005, France) (Moog-Lutz et al, 2005; PMID: 15886198) and obtained through a Materials Transfer Agreement. (B) Western blot analysis of ALK expression in various non-neuroblastoma cell lines: H1373 (human […]), HeLa (cervical cancer), NIH-3T3 (transformed mouse fibroblast cells) using 8G7 and C26G7 (rabbit monoclonal C-terminal anti-ALK antibody; Cell Signaling Technology; Cat #3333; RRID:AB_836862) anti-ALK antibodies.
The three HPLC-purified monoclonal antibodies (5H3, 7F7 and 8G7) all of the IgG1 subtype, were tested for their ability to bind to ALK in neuroblastoma cells expressing ALK. Both cell lysates and supernatants from cells grown with and without serum (to increase the expression of ALK) were tested by western blotting. […] (A) Western blot analysis of the indicated hybridoma clones in neuroblastoma cell lines expressing WT (NGP) and mutated (SHSY5Y, Kelly) ALK. NIH3T3 cells were used as controls. (B) Western blot analysis of conditioned media from NGP neuroblastoma and 293T cells engineered to express the WT ALK receptor, with the three ALK mAbs showing binding with the shed ALK extracellular domain. […]
Cell lysates were prepared in NP-40 buffer (Invitrogen) containing complete protease inhibitor (Roche), phosphatase inhibitor (Roche) and phenylmethylsulfonyl fluoride (PMSF). Lysates were incubated on ice for 20 min and centrifuged at 16,000 g for 15 min at 4° C. Protein concentrations of the supernatants were determined with the DC protein assay kit (Bio-Rad). Protein samples were denatured using NuPAGE LDS sample buffer (Invitrogen) and NuPAGE sample reducing agent (Invitrogen). Proteins were then separated on precast 4-12% Bis-Tris gels (Invitrogen) and transferred to nitrocellulose membranes (Bio-Rad). […]

[1] = biological target: T1, ALK extracellular fragment (Homo sapiens, UniProt Q9UM73); experiment: Sandwich ELISA of shed ALK ECD in patient sera; type: binding; conditions: sera of patients with ALK-expressing neuroblastoma
T1 construct: conditioned media containing the shed ALK (ALK 1-654) ECD fragment; from tissue; host or cells: serum of neuroblastoma patients
T1 sequence (Q9UM73 19-654): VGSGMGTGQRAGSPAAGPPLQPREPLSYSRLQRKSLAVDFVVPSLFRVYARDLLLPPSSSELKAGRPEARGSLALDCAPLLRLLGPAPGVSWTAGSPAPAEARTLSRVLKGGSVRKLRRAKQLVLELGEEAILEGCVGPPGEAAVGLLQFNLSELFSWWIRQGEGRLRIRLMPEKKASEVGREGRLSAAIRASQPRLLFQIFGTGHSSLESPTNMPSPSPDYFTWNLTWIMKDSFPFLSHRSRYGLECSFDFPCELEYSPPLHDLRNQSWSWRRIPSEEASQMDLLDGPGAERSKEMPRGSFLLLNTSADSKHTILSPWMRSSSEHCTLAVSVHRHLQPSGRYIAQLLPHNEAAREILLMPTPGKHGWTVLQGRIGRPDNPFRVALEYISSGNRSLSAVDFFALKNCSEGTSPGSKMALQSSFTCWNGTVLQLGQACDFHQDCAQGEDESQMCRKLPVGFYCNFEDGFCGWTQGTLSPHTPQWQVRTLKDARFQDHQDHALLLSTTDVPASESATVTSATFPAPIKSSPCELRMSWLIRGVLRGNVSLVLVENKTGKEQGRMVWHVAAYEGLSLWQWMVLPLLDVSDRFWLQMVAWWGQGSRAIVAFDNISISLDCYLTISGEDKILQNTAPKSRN
Description: Detection of the purified ALK-ECD protein using 8G7 (detection) and 7F7 (capture) anti-ALK antibodies by sandwich ELISA. (A) Standard curve showing the gradual increase in signal with increasing concentrations of the ALK-ECD protein in the media of NGP cells that express cleaved ALK. Quantification is shown below. (B) ELISA of the shed ALK ECD protein in sera from patients with neuroblastoma. Ample diluent buffer was used to dilute the serum samples, Media represents Dulbecco's Modified Eagle media in which human embryonic kidney 293T cells were grown, 293T media, conditioned media from 293T cells; ALK ECD 293T media, media collected from 293T cells in which the ALK-ECD-mFc protein was overexpressed.
We developed a sandwich ELISA technique where two ALK antibodies (for example, 5H3 or 7F7) can be used to capture the ALK extracellular fragment (antigen), and another antibody, such as the 8G7 antibody, can be used to detect the captured ALK extracellular fragment-5H3 or 7F7 complex. The different epitope binding sites of these antibodies on the ALK extracellular fragment protein allow for the development of the sandwich ELISA technique for the detection of the cleaved or shed ALK extracellular fragment in patient serum samples (FIG. 18). […]

full-length ALK receptor = biological target: T2, full-length ALK receptor (Homo sapiens, UniProt Q9UM73); experiment: Immunoprecipitation of ALK from neuroblastoma cell lysates; type: binding; conditions: immunoblotting with commercial anti-ALK C-terminal antibody
T2 construct: endogenous in cells
T2 sequence (Q9UM73 19-1620): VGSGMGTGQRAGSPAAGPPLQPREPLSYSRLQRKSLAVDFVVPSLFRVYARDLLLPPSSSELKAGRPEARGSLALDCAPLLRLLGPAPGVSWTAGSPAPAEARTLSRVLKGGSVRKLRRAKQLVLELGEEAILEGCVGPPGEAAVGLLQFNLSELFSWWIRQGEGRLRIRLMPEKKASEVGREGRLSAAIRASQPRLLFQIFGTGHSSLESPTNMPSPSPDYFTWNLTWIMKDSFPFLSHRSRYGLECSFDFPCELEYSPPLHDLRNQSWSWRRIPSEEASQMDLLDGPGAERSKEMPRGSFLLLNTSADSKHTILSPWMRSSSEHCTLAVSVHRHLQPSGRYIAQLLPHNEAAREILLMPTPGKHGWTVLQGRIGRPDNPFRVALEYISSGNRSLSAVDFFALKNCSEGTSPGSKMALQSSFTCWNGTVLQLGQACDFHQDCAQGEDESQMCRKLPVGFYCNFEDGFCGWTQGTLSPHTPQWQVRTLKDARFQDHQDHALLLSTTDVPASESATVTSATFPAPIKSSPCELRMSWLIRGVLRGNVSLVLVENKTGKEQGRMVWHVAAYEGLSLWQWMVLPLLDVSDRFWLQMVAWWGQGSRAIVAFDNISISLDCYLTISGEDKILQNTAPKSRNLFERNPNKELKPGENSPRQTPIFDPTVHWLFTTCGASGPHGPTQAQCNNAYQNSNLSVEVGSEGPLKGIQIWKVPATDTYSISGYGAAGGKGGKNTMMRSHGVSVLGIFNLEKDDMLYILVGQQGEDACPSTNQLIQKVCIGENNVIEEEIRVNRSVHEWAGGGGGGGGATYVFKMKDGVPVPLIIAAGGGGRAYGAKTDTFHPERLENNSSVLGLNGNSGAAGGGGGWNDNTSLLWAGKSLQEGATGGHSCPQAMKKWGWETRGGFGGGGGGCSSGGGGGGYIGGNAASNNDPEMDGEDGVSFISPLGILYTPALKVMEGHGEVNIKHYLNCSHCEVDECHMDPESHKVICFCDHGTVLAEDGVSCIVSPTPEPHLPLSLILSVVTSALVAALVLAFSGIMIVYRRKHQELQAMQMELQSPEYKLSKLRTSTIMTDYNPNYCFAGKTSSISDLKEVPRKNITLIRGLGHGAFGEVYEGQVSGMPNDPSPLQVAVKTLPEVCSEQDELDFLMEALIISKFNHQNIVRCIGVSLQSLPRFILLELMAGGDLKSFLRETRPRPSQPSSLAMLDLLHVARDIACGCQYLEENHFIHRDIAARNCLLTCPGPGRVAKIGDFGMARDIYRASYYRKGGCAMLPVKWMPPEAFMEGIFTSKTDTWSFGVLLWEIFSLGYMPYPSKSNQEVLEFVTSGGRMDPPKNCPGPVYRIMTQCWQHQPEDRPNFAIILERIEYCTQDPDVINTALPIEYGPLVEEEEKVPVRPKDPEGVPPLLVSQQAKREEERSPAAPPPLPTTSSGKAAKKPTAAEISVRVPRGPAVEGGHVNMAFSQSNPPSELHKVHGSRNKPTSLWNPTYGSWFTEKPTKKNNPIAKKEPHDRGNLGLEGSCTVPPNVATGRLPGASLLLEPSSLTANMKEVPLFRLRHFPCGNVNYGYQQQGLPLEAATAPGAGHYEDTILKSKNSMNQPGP
Description: Cell lysates from the indicated neuroblastoma cell lines were subjected to immunoprecipitation (IP) using 8G7 and subsequently to immunoblotting analysis using the commercial anti-ALK C-terminal antibody.

ALK receptor = biological target: T3, ALK receptor (Homo sapiens, UniProt Q9UM73, F1174L); experiment: Immunofluorescence detection of ALK; type: binding
T3 construct: expressed in transfected cells; host or cells: SHEP neuroblastoma cells
T3 sequence (Q9UM73 19-1620 F1174L): as the sequence (Q9UM73 19-1620) above, with F1156L counted along it
Description: (A) IF images (40×) of NGP neuroblastoma cells expressing wild type ALK stained with the 8G7 antibody. A 1:100 antibody dilution was used. […] The last plasmid serves as a negative control similar to NIH3T3-MSCV cells in which the vector only is expressed.
Immunofluorescence detection of ALK with 8G7 and 7F7 antibodies in SHEP NB cells engineered to express the ALKF1174L mutation. Staining with the M13 antibody obtained from the Vigny laboratory under an MTA is shown for comparison (Moog-Lutz et al, 2005). Cells expressing the vector only (SHEP) were used as controls. Cells were stained with a 1:100 dilution of antibody. Images were captured at 40× with a Zeiss AXIO Imager Z1 fluorescence microscope.
Cells (0.5×10^6 per well) were seeded into six-well plates and grown on glass coverslips for 24 hr. before fixation in 4% paraformaldehyde in PBS for 15 min at room temperature (RT), washed with PBS, permeabilized in 0.1% Triton X-100, and blocked with PBS containing 0.05% Tween-20 and 5% BSA for 1 hr. to block nonspecific binding. Then, cells were incubated with the 8G7 antibody (1:100) overnight at 4° C. After washing with PBS, cells were incubated with AlexaFluor 568-conjugated secondary antibody for 1 hr. at 25° C. Images were collected on a Zeiss AXIO Imager Z1 fluorescence microscope. […] After 24 hours, cells were washed once in PBS, fixed in 4% paraformaldehyde in PBS, washed, permeabilized in 0.1% Triton X-100, and blocked in PBS containing 10% horse serum. […] The next day, cells were washed, incubated in goat anti-rabbit IgG secondary antibody (1:1000) for 1 hr. washed, and incubated in Streptavidin-TexasRed (1:1000) for 1 hr. Cover slips were mounted onto slides using mounting medium containing DAPI. Images were collected on a Zeiss AXIO Imager Z1 fluorescence microscope.

B1: 8G7: murine monoclonal IgG1 anti-ALK antibody to the N-terminal ECD of human ALK; VH SEQ ID NO: 3, VL SEQ ID NO: 4 (antibody, V domains shown)
VH: QVQLQQSGAELVRPGASVTLSCKASGYTFTDYEMHWVKQTPVHGLEWIGAIDPETGGSAYNQKFKAKAILTADRSSSTAYMELRSLTSEDSAVYYCTRTRYYGSSPAMDYWGQGTSVTVSS
VL: DIQMTQTTSSLSASLGDRVTISCSASQGIGNYLNWYQQKPDGTVKLLIYYTSSLHSGVPSRFSGSGSGTDYSLTISNLEPEDIATYYCQQYSKLPYTFGGGTKLEIK
recognition of ALK in immunoblotting assays (ALK): recognize ALK in immunoblotting assays | specificity of ALK binding by western blot (ALK; FIG. 15 and FIG. 25, compared with mAb-7 and C26G7 anti-ALK antibodies): better specificity compared to commercial Abs; also recorded: binds specifically to the N-terminal region of the ALK protein | recognition of circulating ALK extracellular fragment in sera [1]: recognize the circulating ALK extracellular fragment in the sera of patients with ALK-expressing neuroblastoma | immunoprecipitation of ALK (full-length ALK receptor): can immunoprecipitate ALK; also recorded: immunoprecipitated only the full-length 220 kDa form of ALK | recognition of ALK lacking the majority of the ECD in immunofluorescence (ALK receptor; NIH3T3-ALK-del MAM2 to 654 aa, negative control): not recognized | binding to the ALK receptor in immunofluorescence (ALK receptor; SHEP NB cells engineered to express the ALKF1174L mutation, 1:100 dilution of antibody): bind to the ALK receptor in immunofluorescence assays | recognition of ALK at the cell surface (ALK receptor; immunofluorescence, immunocytochemistry and immunohistochemistry): recognize ALK at the cell surface by immunofluorescence, immunocytochemistry and immunohistochemistry
